From paper PMC8915953 (Frontiers in Microbiology, 2022)

Target: T1, IFITM3-C-LgBiT (human, UniProt Q01628 1-133)
T1 construct: also called C-terminal tagged IFITM3; not shown: LgBiT, C-terminal, kept
Test: split reporter (BiFC, NanoBiT)
Conditions: partners not purified

T1 sequence (Q01628 whole entry): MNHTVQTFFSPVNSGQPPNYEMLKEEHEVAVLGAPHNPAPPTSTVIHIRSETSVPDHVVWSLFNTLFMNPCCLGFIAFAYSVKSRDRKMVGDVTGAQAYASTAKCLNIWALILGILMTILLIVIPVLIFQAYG

B1: ZMPSTE24-C-SmBiT (natural protein, human, UniProt O75844 1-475, looked up)
chain: MGMWASLDALWEMPAEKRIFGAVLLFSWTVYLWETFLAQRQRRIYKTTTHVPPELGQIMDSETFEKSRLYQLDKSTFSFWSGLYSETEGTLILLFGGIPYLWRLSGRFCGYAGFGPEYEITQSLVFLLLATLFSALTGLPWSLYNTFVIEEKHGFNQQTLGFFMKDAIKKFVVTQCILLPVSSLLLYIIKIGGDYFFIYAWLFTLVVSLVLVTIYADYIAPLFDKFTPLPEGKLKEEIEVMAKSIDFPLTKVYVVEGSKRSSHSNAYFYGFFKNKRIVLFDTLLEEYSVLNKDIQEDSGMEPRNEEEGNSEEIKAKVKNKKQGCKNEEVLAVLGHELGHWKLGHTVKNIIISQMNSFLCFFLFAVLIGRKELFAAFGFYDSQPTLIGLLIIFQFIFSPYNEVLSFCLTVLSRRFEFQADAFAKKLGKAKDLYSALIKLNKDNLGFPVSDWLFSMWHYSHPPLLERLQALKTMKQH
notes: also called C-terminal tagged ZMPSTE24; not shown: SmBiT, C-terminal, kept
luminescence relative to the negative control pairs: ~12 fold
